Reference: patent USRE49847 (dated 2024)
Positions count from the first letter of the chain named.

T1: soluble CD22-Fc (R&D Systems) (UniProt P20273 20-687)
T1 construct: Bought reagent used to stain CD22 CARs; not shown: Fc part; detected with anti-human IgG Fc-gamma secondary
T1 sequence (looked up): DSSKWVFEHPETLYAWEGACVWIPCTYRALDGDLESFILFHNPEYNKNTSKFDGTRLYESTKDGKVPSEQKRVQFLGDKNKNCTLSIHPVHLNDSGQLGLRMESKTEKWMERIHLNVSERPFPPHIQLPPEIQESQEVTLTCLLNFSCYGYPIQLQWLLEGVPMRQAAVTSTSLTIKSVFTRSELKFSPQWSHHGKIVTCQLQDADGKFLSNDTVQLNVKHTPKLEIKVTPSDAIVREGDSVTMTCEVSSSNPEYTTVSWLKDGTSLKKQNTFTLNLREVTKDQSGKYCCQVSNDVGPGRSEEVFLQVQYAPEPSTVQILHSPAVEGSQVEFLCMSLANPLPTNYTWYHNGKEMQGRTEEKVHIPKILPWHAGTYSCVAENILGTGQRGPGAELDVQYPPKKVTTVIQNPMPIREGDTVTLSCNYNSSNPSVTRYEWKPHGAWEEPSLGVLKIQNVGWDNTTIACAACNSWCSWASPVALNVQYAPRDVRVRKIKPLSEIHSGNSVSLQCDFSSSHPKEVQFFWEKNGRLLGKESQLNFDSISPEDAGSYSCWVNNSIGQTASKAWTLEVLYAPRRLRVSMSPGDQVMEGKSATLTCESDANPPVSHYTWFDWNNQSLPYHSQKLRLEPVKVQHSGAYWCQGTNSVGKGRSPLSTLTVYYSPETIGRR

B1: CD22-57 CAR (other)
chain: EVQLQQSGPGLVKPSQTLSLTCAISGDSVSNNNAAWNWIRQSPSRGLEWLGRTYHRSTWYNDYVGSVKSRITINPDTSKNQFSLQLNSVTPEDTAVYYCARETDYGDYGAFDIWGQGTTVTVSSGGGGSGGGGSGGGGSQSALTQPASVSGSPGQSITISCTGSRNDIGAYESVSWYQQHPGNAPKLIIHGVNNRPSGVFDRFSVSQSGNTASLTISGLQAEDEADYYCSSHTTTSTLYVFGTGTKVTVL
notes: CAR on primary human T cells; not shown: hinge, transmembrane, 4-1BB and CD3zeta parts of the CAR
B2: CD22-65 CAR (other)
chain: EVQLQQSGPGLVKPSQTLSLTCAISGDSMLSNSDTWNWIRQSPSRGLEWLGRTYHRSTWYDDYASSVRGRVSINVDTSKNQYSLQLNAVTPEDTGVYYCARVRLQDGNSWSDAFDVWGQGTMVTVSSGGGGSGGGGSGGGGSQSALTQPASASGSPGQSVTISCTGTSSDVGGYNYVSWYQQHPGKAPKLMIYDVSNRPSGVSNRFSGSKSGNTASLTISGLQAEDEADYYCSSYTSSSTLYVFGTGTQLTVLTTTPAPRPPTPAPTIASQPLSLRPEACRPAAGGAVHTRGLDFACDIYIWAPLAGTCGVLLLSLVITLYCKRGRKKLLYIFKQPFMRPVQTTQEEDGCSCRFPEEEEGGCELRVKFSRSADAPAYKQGQNQLYNELNLGRREEYDVLDKRRGRDPEMGGKPRRKNPQEGLYNELQKDKMAEAYSEIGMKGERRRGKGHDGLYQGLSTATKDTYDALHMQALPPR
notes: also called CD22-65_Zmut
B3: CD22-53 CAR (other)
chain: EVQLQQSGPGLVKPSQTLSLTCAISGDSVSSNSAAWNWIRQSPSRGLEWLGRTYYRSKWYSDYAVSVKSRITINPDTSKNQFSLQLNSVTPEDTAVYYCARDPYDFWSGYPDAFDIWGQGTMVTVSSGGGGSGGGGSGGGGSQSALTQPASVSGSPGQSITISCTGTSSDVGGYNYVSWYQQHPGKAPKVIISEVNNRPSGVSHRFSGSKSGNTASLTISGLQAEDEADYFCSSYTSGRTLYVFGTGSKVTVLG
notes: Control CD22 CAR; not shown: hinge, transmembrane, 4-1BB and CD3zeta parts of the CAR
B4: CD22-62 CAR (other)
chain: EVQLQQSGPGLVKPSQTLSLTCAISGDSVLSNSDTWNWIRQSPSRGLEWLGRTYHRSTWYDDYASSVRGRVSINVDTSKNQYSLQLNAVTPEDTGVYYCARDRLQDGNSWSDAFDVWGQGTMVTVSSGGGGSGGGGSGGGGSQSALTQPASVSGSPGQSITISCTGTSSDVGGYNYVSWYQQHPGKAPKLMIYDVSNRPSGVSNRFSGSKSGNTASLTISGLQAEDEADYYCSSYTSSSTLYVFGTGTKVTVL
notes: as for B1
B5: CD22-60 CAR (other)
chain: B4 chain with G139S, I162F, V171I, D194E, S209T, V250L
notes: as for B1
B6: CD22-59 CAR (other)
chain: EVQLQQSGPGLVKPSQTLSLTCAISGDSVLSNSDTWNWIRQSPSRGLEWLGRTYHRSTWYDDYASSVRGRVSINVDTSKNQYSLQLNAVTPEDTGVYYCARDRLQDGNSWSDAFDVWGQGTMVTVSSGGGGSGGGGSGGGGSQSALTQPASVSGSPGQSITISCTGSSSDIGGFNYVSWYQQHAGEAPKLMIYEVTNRPSGVSDRFSGSKSDNTASLTISGLQAEDEADYYCSSYASGSPLYVFGTGTKVTVL
notes: as for B1
B7: CD22-61 CAR (other)
chain: B4 chain with E1Q, Q6E, G139S, D194E
notes: as for B1
B8: CD22-63 CAR (other)
chain: B4 chain with D194E, V243I
notes: as for B1
B9: CD22-64 CAR (other)
chain: B4 chain with S19P, D102V, S142P, V152A, I160V, K249Q, V250L
notes: as for B1
B10: CD22-58 CAR (other)
chain: EVQLQQSGPGLVNPSQTLSITCAISGDSVSSNSAAWNWIRQSPSRGLEWLGRTFYRSKWYNDYAVSVKGRITISPDTSKNQFSLQLNSVTPEDTAVYYCAGGDYYYGLDVWGQGTTVTVSSGGGGSGGGGSGGGGSQSALTQPASVSGSPGQSITISCTGSSSDVGGYNSVSWYQQHPGKAPKLMIYEVINRPSGVSHRFSGSKSGNTASLTISGLQAEDEADYYCSSYTSSSTYVFGTGTKVTVL
notes: as for B1

These binders were tested against T1, soluble CD22-Fc (R&D Systems) (assay: flow cytometry, soluble CD22-Fc plus anti-human Fc-PE on CAR-transduced primary T cells (FIG. 4)).

| MFI | Binder |
| --- | --- |
| > 20000 | B1 |
| > 20000 | B2 |
| > 20000 | B3 |
| > 20000 | B4 |
| > 20000 | B5 |
| > 20000 | B6 |
| > 20000 | B7 |
| > 20000 | B8 |
| > 20000 | B9 |
| 5700 | B10 |
